Experimental data from US20110044995A1 (KUMAMOTO UNIVERSITY, published 2011).
Where “and” joins values, the source holds several entries; their conditions need not be identical. Equal values may be shown once.

T1: envelope of HIV-2 strain ROD (HIV-2 strain ROD, UniProt P04577 20-858)
T1 sequence: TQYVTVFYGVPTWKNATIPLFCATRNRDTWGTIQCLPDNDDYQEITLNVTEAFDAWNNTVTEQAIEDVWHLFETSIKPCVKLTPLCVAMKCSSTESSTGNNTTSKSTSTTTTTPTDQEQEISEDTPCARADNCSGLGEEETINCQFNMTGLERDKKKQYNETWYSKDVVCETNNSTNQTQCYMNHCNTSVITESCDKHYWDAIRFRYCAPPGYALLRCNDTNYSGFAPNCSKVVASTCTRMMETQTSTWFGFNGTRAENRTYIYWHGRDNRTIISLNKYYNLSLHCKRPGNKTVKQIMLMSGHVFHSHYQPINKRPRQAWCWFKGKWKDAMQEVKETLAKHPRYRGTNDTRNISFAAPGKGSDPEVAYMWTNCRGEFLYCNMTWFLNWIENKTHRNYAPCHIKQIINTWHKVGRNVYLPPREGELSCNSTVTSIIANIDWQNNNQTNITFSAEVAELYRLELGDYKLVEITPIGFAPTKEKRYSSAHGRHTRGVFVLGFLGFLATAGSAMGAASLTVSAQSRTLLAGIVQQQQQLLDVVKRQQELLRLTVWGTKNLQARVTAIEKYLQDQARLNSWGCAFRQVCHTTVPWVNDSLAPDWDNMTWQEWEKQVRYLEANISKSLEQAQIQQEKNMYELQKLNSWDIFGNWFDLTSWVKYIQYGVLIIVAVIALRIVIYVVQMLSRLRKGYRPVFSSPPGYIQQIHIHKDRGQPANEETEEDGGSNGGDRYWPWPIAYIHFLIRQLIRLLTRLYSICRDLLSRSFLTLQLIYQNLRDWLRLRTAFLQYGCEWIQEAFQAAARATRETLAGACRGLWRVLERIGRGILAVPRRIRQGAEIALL

T2: V3 peptide NNT20 (HIV-1 strain JR-FL)
T2 construct: Coated on the plate at 5 µg/ml
T2 peptide: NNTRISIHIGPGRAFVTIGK

B1: 5G2 (antibody, IgG1, V domains shown)
VH: EVQLVESGGGVVRPGNSLRLSCAASGIIFSTANLHWLRHVPGKGLEWVAIISYDGHRQYYADLVKGRFTISRDNSKNTLHLQMDGLTSDDTAVYYCAKDGADENNLGPAFDYWGRGTLVTVSS
VL: EIVLTQSPATLSVSPGEGATLSCRASQSISSNLAWYQQKPGQAPRLLIYGASTGATGIPARFSGSGSGTDFTLTISRLEPEDFAIYYCQQYGSLPITFGQGTRLEIKR
B2: 0.5 γ(1C10) (antibody, IgG1, V domains shown)
VH: EVQLVESGGGLIQPGGSLRLSCAASGFTVSSSSMSWVRQAPEKGLEWVSVVYSGGNTYNADSVKGRFSISRDNSKNTVYLQMNSLRADDTAVYYCARDLGGGDRSSDYWGQGTLVTVSS
VL: DIQLTQSPSSLSASVGDRVTITCRASESINTYLNWYQQRPGKAPKLLIYAASTLQTGVPSRFSGSGSGTLFTLTISSLQPEDLATYYCQQSFSTLPYTLGRGTKVEIKG
notes: Human monoclonal from EBV-immortalised B cells of a long-term nonprogressor; also called 0.5γ(IC10); 1C10(0.5 γ)
B3: 0.5 δ(3D6) (antibody, IgG1, V domains shown)
VH: EVQLVESAAEVKKPGASVKVSCKASGYTFTSYGISWVRQAPGQGLQWMGWISAYNGNTKFAQEFKGRVTMTTDTSATTAYMELRSLRSDDTAVYYCARRNYYDSGSYYIRDGDYSMDVWGQGTLVTVSS
VL: not shown
notes: also called 3D6(0.5 δ); 0.5 d(3D6)
B4: 42F9 (antibody, IgG1, V domains shown)
VH: EVQLVESGGGVVRPGGSLRLSCAASGFAFGEYGMSWVRQAPGKGLEWVSGINWNGGSTGYADSVQGRFTTSRDNAKNSLYLQMNSLRAEDTALYYCARDENYDILTGNYYYGMDVWGQGTTVTVSS
VL: DIQLTQSPSSLSASVGDRVTITCRASQSISNYLNWYQQKPGKAPKLLIYAASSLQSGVPSRFSGSGSGTDFTLTISSLQPEDFATFYCQQSHSIPYTFGQGTKLEIKR

Each binder was assayed against envelope of HIV-1 strain IIIB (HIV-1 strain IIIB) (assay: cell-based or functional assay).
Parameters: unit not given beside the values

| Binder | IC50, neutralizing activity (MTT assay) |
| --- | --- |
| B1 | > 50 |
| B2 | > 50 |
| B3 | 2 |

What follows are binders tested against envelope of HIV-1 strain 89.6 (HIV-1 strain 89.6, UniProt Q73372 32-853) (assay: cell-based or functional assay).
Parameters: unit not given beside the values

| Binder | IC50, neutralizing activity (MTT assay) |
| --- | --- |
| B1 | 14 |
| B2 | 0.12 |
| B3 | > 50 |

Each binder was assayed against envelope of HIV-1 strain SF162 (HIV-1 strain SF162, UniProt P19550 32-847) (assay: cell-based or functional assay).
Parameters: unit not given beside the values

| Binder | IC50, neutralizing activity (MTT assay) |
| --- | --- |
| B1 | 0.91 |
| B2 | 0.053 |
| B3 | 2.3 |

What follows are binders tested against envelope of HIV-1 strain BaL (HIV-1 strain BaL) (assay: cell-based or functional assay).
Parameters: unit not given beside the values

| Binder | IC50, neutralizing activity (MTT assay) |
| --- | --- |
| B1 | 5.8 |
| B2 | 0.25 |
| B3 | > 50 |

The binders below were run against envelope of HIV-1 strain JR-FL (JRFLwt), on virus (HIV-1 strain JR-FL) (assay: cell-based or functional assay).
Parameters: unit not given beside the values

| Binder | IC50, neutralizing activity (MTT assay) |
| --- | --- |
| B1 | 37 |
| B2 | 2.9 |
| B3 | > 50 |

What follows are binders tested against envelope of HIV-1 strain JRFLGPER (assay: cell-based or functional assay).
Parameters: unit not given beside the values

| Binder | IC50, neutralizing activity (MTT assay) |
| --- | --- |
| B1 | > 50 |
| B2 | 26 |
| B3 | 1.2 |

What follows are binders tested against envelope of HIV-1 strain YU2 (HIV-1 strain YU2, UniProt P35961 32-843) (assay: cell-based or functional assay).
Parameters: unit not given beside the values

| Binder | IC50, neutralizing activity (MTT assay) |
| --- | --- |
| B1 | > 50 |
| B2 | 14 |
| B3 | > 50 |

Each binder was assayed against envelope of HIV-1 clinically isolated strain MTA (assay: cell-based or functional assay).
Parameters: unit not given beside the values

| Binder | IC50, neutralizing activity (MTT assay) |
| --- | --- |
| B1 | 0.009 |
| B2 | 0.53 |
| B3 | 0.15 |

The binders below were run against envelope of HIV-1 clinically isolated strain MOKW (assay: cell-based or functional assay).
Parameters: unit not given beside the values

| Binder | IC50, neutralizing activity (MTT assay) |
| --- | --- |
| B1 | 0.012 |
| B2 | 0.02 |
| B3 | 0.42 |

These binders were tested against envelope of HIV-1 clinically isolated strain YKI (assay: cell-based or functional assay).
Parameters: unit not given beside the values

| Binder | IC50, neutralizing activity (MTT assay) |
| --- | --- |
| B1 | 1 |
| B2 | 0.01 |
| B3 | 2.4 |

Each binder was assayed against envelope of HIV-1 clinically isolated strain YIS (assay: cell-based or functional assay).
Parameters: unit not given beside the values

| Binder | IC50, neutralizing activity (MTT assay) |
| --- | --- |
| B1 | > 50 |
| B2 | 0.59 |
| B3 | 2.3 |

Each binder was assayed against envelope of HIV-1 clinically isolated strain MIS (assay: cell-based or functional assay).
Parameters: unit not given beside the values

| Binder | IC50, neutralizing activity (MTT assay) |
| --- | --- |
| B1 | > 50 |
| B2 | > 50 |
| B3 | 0.15 |

Each binder was assayed against envelope of HIV-1 clinically isolated strain kKGO (assay: cell-based or functional assay).
Parameters: unit not given beside the values

| Binder | IC50, neutralizing activity (MTT assay) |
| --- | --- |
| B1 | > 50 |
| B2 | 0.32 |
| B3 | > 50 |

The binders below were run against envelope of HIV-1 clinically isolated strain KMT (assay: cell-based or functional assay).
Parameters: unit not given beside the values

| Binder | IC50, neutralizing activity (MTT assay) |
| --- | --- |
| B1 | > 50 |
| B2 | 24 |
| B3 | 24 |

These binders were tested against envelope of HIV-1 clinically isolated strain TR43 (assay: cell-based or functional assay).
Parameters: unit not given beside the values

| Binder | IC50, neutralizing activity (MTT assay) |
| --- | --- |
| B1 | > 50 |
| B2 | > 50 |
| B3 | > 50 |

Each binder was assayed against T1, envelope of HIV-2 strain ROD (assay: cell-based or functional assay).
Parameters: unit not given beside the values

| Binder | IC50, neutralizing activity (MTT assay) |
| --- | --- |
| B1 | > 50 |
| B2 | > 50 |
| B3 | > 50 |

Each binder was assayed against envelope of HIV-2 strain EHO (HIV-2 strain EHO) (assay: cell-based or functional assay).
Parameters: unit not given beside the values

| Binder | IC50, neutralizing activity (MTT assay) |
| --- | --- |
| B1 | > 50 |
| B2 | > 50 |
| B3 | > 50 |

The binders below were run against envelope of standard panel pseudotyped virus SVPB5 (HIV-1 subtype B) (assay: cell-based or functional assay).

| Binder | IC50 in TZM-bl cells |
| --- | --- |
| B1 | 10.1 µg/mL |
| B2 | 0.23 µg/mL |
| B3 | 1.2 µg/mL |
| B4 | 4.5 µg/mL |

What follows are binders tested against envelope of standard panel pseudotyped virus SVPB6 (HIV-1 subtype B) (assay: cell-based or functional assay).

| Binder | IC50 in TZM-bl cells |
| --- | --- |
| B1 | > 50 µg/mL |
| B2 | 38 µg/mL |
| B3 | > 50 µg/mL |
| B4 | > 50 µg/mL |

What follows are binders tested against envelope of standard panel pseudotyped virus SVPB8 (HIV-1 subtype B) (assay: cell-based or functional assay).

| Binder | IC50 in TZM-bl cells |
| --- | --- |
| B1 | > 50 µg/mL |
| B2 | > 150 µg/mL |
| B3 | > 50 µg/mL |
| B4 | > 50 µg/mL |

Each binder was assayed against envelope of standard panel pseudotyped virus SVPB11 (HIV-1 subtype B) (assay: cell-based or functional assay).

| Binder | IC50 in TZM-bl cells |
| --- | --- |
| B1 | > 50 µg/mL |
| B2 | 35 µg/mL |
| B3 | > 50 µg/mL |
| B4 | > 50 µg/mL |

The binders below were run against envelope of standard panel pseudotyped virus SVPB12 (HIV-1 subtype B) (assay: cell-based or functional assay).

| Binder | IC50 in TZM-bl cells |
| --- | --- |
| B1 | > 50 µg/mL |
| B2 | > 50 µg/mL and 82 µg/mL |
| B3 | > 50 µg/mL |
| B4 | > 50 µg/mL |

What follows are binders tested against envelope of standard panel pseudotyped virus SVPB13 (HIV-1 subtype B) (assay: cell-based or functional assay).

| Binder | IC50 in TZM-bl cells |
| --- | --- |
| B1 | > 50 µg/mL |
| B2 | > 50 µg/mL and 110 µg/mL |
| B3 | > 50 µg/mL |
| B4 | > 50 µg/mL |

These binders were tested against envelope of standard panel pseudotyped virus SVPB14 (HIV-1 subtype B) (assay: cell-based or functional assay).

| Binder | IC50 in TZM-bl cells |
| --- | --- |
| B1 | > 50 µg/mL |
| B2 | 10.5 µg/mL |
| B3 | > 50 µg/mL |
| B4 | > 50 µg/mL |

Each binder was assayed against envelope of standard panel pseudotyped virus SVPB15 (HIV-1 subtype B) (assay: cell-based or functional assay).

| Binder | IC50 in TZM-bl cells |
| --- | --- |
| B1 | > 50 µg/mL |
| B2 | > 150 µg/mL |
| B3 | > 50 µg/mL |
| B4 | > 50 µg/mL |

These binders were tested against envelope of standard panel pseudotyped virus SVPB16 (HIV-1 subtype B) (assay: cell-based or functional assay).

| Binder | IC50 in TZM-bl cells |
| --- | --- |
| B1 | > 50 µg/mL |
| B2 | 6.1 µg/mL |
| B3 | > 50 µg/mL |
| B4 | 21 µg/mL |

What follows are binders tested against envelope of standard panel pseudotyped virus SVPB17 (HIV-1 subtype B) (assay: cell-based or functional assay).

| Binder | IC50 in TZM-bl cells |
| --- | --- |
| B1 | 50 µg/mL |
| B2 | 4.5 µg/mL |
| B3 | > 50 µg/mL |
| B4 | > 50 µg/mL |

Each binder was assayed against envelope of standard panel pseudotyped virus SVPB18 (HIV-1 subtype B) (assay: cell-based or functional assay).

| Binder | IC50 in TZM-bl cells |
| --- | --- |
| B1 | 11.5 µg/mL |
| B2 | 1.1 µg/mL |
| B3 | > 50 µg/mL |
| B4 | > 50 µg/mL |

Biological target: T2, V3 peptide NNT20
Assay: V3-peptide ELISA, NNT20 coated at 5 µg/ml

| Binder | binding result |
| --- | --- |
| B1 | binds |
| B2 | binds |

The binders below were run against T3, monomeric gp120 (gp120-SF2; Austral Biologicals) (HIV-1 strain SF2, UniProt P03378 32-509) (assay: gp120-capture ELISA, B cell culture supernatant).
T3 construct: domain: gp120; also called gp120 monomer

| Binder | binding result |
| --- | --- |
| B2 | binds |
| B4 | binds |

Each binder was assayed against T3, monomeric gp120 (gp120-SF2; Austral …) (assay: gp120-capture ELISA with or without 0.5 µg/ml sCD4).

| Binder | binding result |
| --- | --- |
| B1 | binds |
| B3 | binds |
